# Reference: patent publication US20100004182A1 (MARUHA, published 2010)
# How the values were obtained:
# [1] = biological target: xanthine oxidase (XO) of cow's milk (from Wako Pure Chemical) (cow, UniProt P80457 2-1332); test: cell-based or functional assay
# [2] = biological target: xanthine oxidase (XO) from butter milk (from Wako Pure Chemical) (UniProt P80457 2-1332); test: cell-based or functional assay
# Chain of xanthine oxidase (XO) from butter milk (from Wako Pure Chemical) (P80457 2-1332 limits assumed): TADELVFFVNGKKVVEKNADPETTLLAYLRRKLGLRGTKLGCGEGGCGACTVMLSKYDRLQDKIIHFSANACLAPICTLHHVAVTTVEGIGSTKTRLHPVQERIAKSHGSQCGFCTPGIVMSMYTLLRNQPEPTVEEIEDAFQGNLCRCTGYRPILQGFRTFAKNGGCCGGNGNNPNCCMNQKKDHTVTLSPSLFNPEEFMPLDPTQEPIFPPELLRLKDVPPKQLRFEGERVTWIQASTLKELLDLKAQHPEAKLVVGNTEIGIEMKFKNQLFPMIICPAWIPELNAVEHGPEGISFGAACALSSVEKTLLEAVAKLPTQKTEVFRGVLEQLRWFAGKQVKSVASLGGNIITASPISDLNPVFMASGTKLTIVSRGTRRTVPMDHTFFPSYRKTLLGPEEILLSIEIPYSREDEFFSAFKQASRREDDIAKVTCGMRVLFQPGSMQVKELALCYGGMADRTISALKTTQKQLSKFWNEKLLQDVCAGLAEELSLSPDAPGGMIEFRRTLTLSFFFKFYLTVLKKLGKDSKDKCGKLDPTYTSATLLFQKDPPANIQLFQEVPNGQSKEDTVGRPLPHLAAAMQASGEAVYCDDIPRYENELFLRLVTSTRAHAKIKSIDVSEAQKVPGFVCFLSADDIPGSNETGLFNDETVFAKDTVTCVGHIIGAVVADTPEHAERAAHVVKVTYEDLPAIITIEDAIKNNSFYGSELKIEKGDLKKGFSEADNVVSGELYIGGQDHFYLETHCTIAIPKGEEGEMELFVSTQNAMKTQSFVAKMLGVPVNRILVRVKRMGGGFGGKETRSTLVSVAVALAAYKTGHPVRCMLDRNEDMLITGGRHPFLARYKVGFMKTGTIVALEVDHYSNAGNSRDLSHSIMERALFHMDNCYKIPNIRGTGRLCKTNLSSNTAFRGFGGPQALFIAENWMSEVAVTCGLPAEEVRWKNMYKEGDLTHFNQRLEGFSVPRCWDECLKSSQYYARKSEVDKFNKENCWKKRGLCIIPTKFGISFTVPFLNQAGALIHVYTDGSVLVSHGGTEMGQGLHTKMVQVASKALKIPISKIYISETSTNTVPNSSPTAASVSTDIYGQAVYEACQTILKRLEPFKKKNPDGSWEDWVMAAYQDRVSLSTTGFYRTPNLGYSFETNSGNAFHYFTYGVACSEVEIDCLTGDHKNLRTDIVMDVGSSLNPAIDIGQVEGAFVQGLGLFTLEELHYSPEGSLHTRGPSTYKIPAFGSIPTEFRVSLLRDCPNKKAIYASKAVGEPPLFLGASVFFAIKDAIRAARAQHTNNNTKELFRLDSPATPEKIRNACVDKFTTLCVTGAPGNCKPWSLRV
# Chain of xanthine oxidase (XO) of cow's milk (from Wako Pure Chemical) (P80457 2-1332 limits assumed): as above
"50% inhibitory concentration (IC50) of xanthine oxidase activity (uric acid produced from xanthine, OD at 292 nm) [1]","50% inhibitory concentration (IC50) of xanthine oxidase activity (uric acid produced from xanthine, OD at 292 nm) [2]",Binder
1700 µM,–,LD [peptide LD]
1200 µM,–,YLDN [peptide YLDN]
–,3700 µM,YINY [polypeptide having SEQ ID No. 2 (YINY)]
500 µM,–,DN [peptide DN]
750 µM,–,LDNY [peptide LDNY]
